Results as given in the Human Domainome abundance scans (Beltran et al. 2025).
± gives the uncertainty stated by the source.

B1: Integrator complex subunit 12, residues 155 to 213; numbered along this chain, Q96CB8 (parent)
chain: AMEMGLACVVCRQMMVASGNQLVECQECHNLYHRDCHKPQVTDKEANDPRLVWYCARCT

Variants of: B1
Test: abundance fitness (aPCA) (normalised: wild type 0, dead -1); higher = more abundant; growth selection in yeast, the domain comes from the species named
Conditions: Homo sapiens

Variant	abundance fitness
Q13C	-0.125 ± 0.038
A56E	-0.08 ± 0.043
G5Q	0.085 ± 0.052
V52H	-0.036 ± 0.076
N20I	-0.089 ± 0.035
A7P	0.069 ± 0.054
E45A	-0.087 ± 0.044
V16F	-0.02 ± 0.035
Y54P	-0.35 ± 0.059
C8D	-0.787 ± 0.066
S18Y	-0.183 ± 0.038
P39C	0.045 ± 0.09
A17S	0.006 ± 0.035
D43T	-0.08 ± 0.047
R50T	0.041 ± 0.056
L22M	-0.006 ± 0.074
M4T	0.04 ± 0.041
Q40V	-0.063 ± 0.041
V9E	-0.197 ± 0.078
V10G	-0.206 ± 0.042
E45Q	-0.014 ± 0.073

Variant	abundance fitness
Q40K	-0.035 ± 0.061
L6T	0.041 ± 0.04
M2I	0.059 ± 0.04
A46R	-0.089 ± 0.039
Y54N	0.007 ± 0.081
M4P	-0.022 ± 0.057
N20Y	-0.171 ± 0.034
C25P	-0.869 ± 0.19
K44G	0.023 ± 0.04
C28I	-0.954 ± 0.054
L22D	-0.292 ± 0.048
E27A	-0.044 ± 0.036
G5R	-0.058 ± 0.035
K44C	0.059 ± 0.11
C28M	-0.835 ± 0.064
N30P	-0.706 ± 0.11
L51S	0.049 ± 0.051
C55A	-0.809 ± 0.066
N47L	-0.05 ± 0.037
C28N	-0.561 ± 0.039
C8H	-0.901 ± 0.058

Variant	abundance fitness
N20R	-0.045 ± 0.038
T42E	-0.066 ± 0.046
E24R	-0.094 ± 0.049
A17T	-0.065 ± 0.044
E3Y	-0.222 ± 0.039
G19D	0.031 ± 0.042
A17D	-0.211 ± 0.044
H29L	-0.275 ± 0.039
K38Y	-0.134 ± 0.071
H37N	-0.144 ± 0.035
K44H	-0.124 ± 0.079
W53F	-0.045 ± 0.098
N20V	-0.049 ± 0.032
N47W	-0.154 ± 0.064
H29T	-0.216 ± 0.042
D48M	-0.085 ± 0.071
C55V	-1.08 ± 0.095
C36A	-0.671 ± 0.043
E45T	-0.052 ± 0.054
Q13T	-0.089 ± 0.039
H37D	-0.002 ± 0.035

Variant	abundance fitness
L6R	-0.08 ± 0.038
N30K	0.048 ± 0.095
S18I	-0.129 ± 0.037
H29C	-0.185 ± 0.037
Y32D	-0.525 ± 0.044
H29F	-0.19 ± 0.036
T59C	-0.25 ± 0.18
H29V	-0.438 ± 0.035
K44D	0.078 ± 0.059
V41N	-0.481 ± 0.096
E3F	-0.304 ± 0.038
L31R	0.091 ± 0.034
P39L	-0.294 ± 0.045
R50Q	-0.059 ± 0.061
T42Q	-0.064 ± 0.051
A17F	-0.233 ± 0.04
D43V	-0.057 ± 0.039
V16N	0.016 ± 0.036
L6H	0.038 ± 0.039
C25S	-0.662 ± 0.065
